Reference: patent publication US20080050351A1 (Pfizer, published 2008)

Biological target: T1, lecithin:cholesterol acyltransferase (LCAT), purified from human plasma (human, UniProt P04180 25-440)
T1 sequence (looked up): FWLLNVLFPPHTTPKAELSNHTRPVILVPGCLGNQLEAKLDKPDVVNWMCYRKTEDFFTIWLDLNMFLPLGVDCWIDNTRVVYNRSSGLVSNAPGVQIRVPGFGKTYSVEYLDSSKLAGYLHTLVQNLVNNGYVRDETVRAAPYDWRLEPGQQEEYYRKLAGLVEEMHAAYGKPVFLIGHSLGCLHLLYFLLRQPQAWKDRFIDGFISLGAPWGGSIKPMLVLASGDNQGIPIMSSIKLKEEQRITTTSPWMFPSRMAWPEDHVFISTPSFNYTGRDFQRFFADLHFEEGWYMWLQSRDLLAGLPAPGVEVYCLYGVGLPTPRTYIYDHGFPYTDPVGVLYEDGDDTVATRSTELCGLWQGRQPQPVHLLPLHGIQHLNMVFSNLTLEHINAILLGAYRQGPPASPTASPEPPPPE
Assay: cell-based or functional assay

ACTIVITY (%) LCAT: 12%
Binder: DVLDLFRELLEELKQKLK [peptide 221]
